These results are taken from patent US20210309735A1 (published 2021).

Substitutions are numbered along the chain they refer to.

Assay [1] concerns the target T1, human IL-17A (human, UniProt Q16552 20-155, limits assumed).
T1 construct: Bought from R&D Systems; also called IL-17 antigen (human IL17A)
T1 sequence (looked up): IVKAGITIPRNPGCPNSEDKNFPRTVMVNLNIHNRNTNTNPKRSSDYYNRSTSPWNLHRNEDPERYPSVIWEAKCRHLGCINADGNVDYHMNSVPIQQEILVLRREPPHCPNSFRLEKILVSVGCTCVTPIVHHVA
In words: blocking ELISA, IL-17RA coated; control IgG pre-mixed with human IL-17A 0.1 ug/ml; bound IL-17A detected.

Assay [2] concerns the target T1, human IL-17A. In words: blocking ELISA, IL-17RC coated; control IgG pre-mixed with human IL-17A 0.1 ug/ml; bound IL-17A detected.
Assay [3] addresses T1, human IL-17A. Briefly: blocking ELISA, IL-17RC coated; control IgG pre-mixed with human IL-17A 0.1 ug/ml; bound IL-17A detected (unblocked signal). (In general: An ELISA detects its analyte on a solid surface through an enzyme-linked reagent.)
The target in assay [4] is T1, human IL-17A. In words: blocking ELISA, IL-17RA coated; control IgG pre-mixed with human IL-17A 0.1 ug/ml; bound IL-17A detected (unblocked signal).
The target of assay [5] is T2, mouse IL-17A (mouse, UniProt Q62386 26-158, limits assumed).
T2 sequence (looked up): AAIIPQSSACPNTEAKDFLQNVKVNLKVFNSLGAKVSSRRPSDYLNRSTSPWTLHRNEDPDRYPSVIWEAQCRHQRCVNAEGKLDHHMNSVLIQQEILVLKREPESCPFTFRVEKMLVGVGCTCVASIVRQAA
In words: ELISA, mouse IL-17A coated.

The target of assay [6] is T1, human IL-17A. Briefly: blocking ELISA, IL-17RA coated; antibody 1 ug/ml pre-mixed with human IL-17A 0.1 ug/ml; bound IL-17A detected. As to the method:
(§1) Recombinant human IL-17RA or recombinant human IL-17RC (1 μg/ml) were coated on the plate, overnight at 4° C. in the dark and then blocked with 2% BSA for 1 hour at room temperature to reduce non-specific binding. The antibodies PP10759-PP10768 (1 μg/ml) pre-mixed with human IL-17A (0.1 μg/ml final concentration) were added to the ELISA wells for 1 hour at room temperature. The plate was washed with PBS for three times, and then incubated with anti-IL17A polyclonal Ab-biotin (R&D Systems) for 1 hour followed by SAV-HRP. The plate was washed for three times with PBS. TMB, the HRP substrate, was added to each well for color development for 5 minutes at room temperature. Equal amount of 0.1N HCl stop solution was added to each well to terminate the reaction. Raw OD₄₅₀ data was collected by POLARstar Omega from BMG Labtech.
(§2) It can be seen that the antibodies PP10759-PP10768 can effectively block the interaction between IL-17A and IL-17RA as well as IL-17A and IL-17RC.

Assay [7] deals with T1, human IL-17A. In words: BLI (Octet Red96), antibody captured on AHC biosensor, human IL-17A in solution, 1:1 model, 25 C. The method, then: Using the Octet method (Fortebio Octet®), the chimeric parental antibody and the […] (i.e. PP10759-PP10768) were evaluated with Octet Red96 at 25° C. These antibodies were captured on anti-Human Fc (AHC) biosensors at a concentration of 10 μg/mL. Loaded biosensors were then dipped into a dilution of antigen (human IL-17A (R&D Systems), 500 nM start, 1:3 down, 7 points). Kinetic constants were calculated using a monovalent (1:1) model. In FIG. 2A, Figure I, II, III and IV show the results of PP10759, PP10760, PP10761 and PP10762, respectively. In FIG. 2B, Figure I, II, III and IV show the results of PP10763, PP10764, PP10765 and PP10766, respectively. In FIG. 2B, Figure I and II show the results of PP10767 and PP10768, respectively. It can be seen that the antibodies (i.e. PP10759-PP10768) bind to IL-17A with high affinity. […] Secukinuma is a human IgG1κ monoclonal antibody that binds to IL-17A made by Novartis.

Assay [8] addresses T1, human IL-17A. Briefly: ELISA, human IL-17A coated at 1 ug/mL, anti-human IgG-HRP detection. As to the method: ELISA plates were coated with 1 μg/mL IL-17 antigen (human IL17A) (R&D Systems) and incubated at 4° C. in the dark overnight. Then it was washed once with 10 mM, pH 7.4 PBS/Tween (0.05%), blocked with PBST containing 2% BSA for 1 hour and incubated at room temperature for 1 h. The antibodies PP10759-PP10768 were diluted in 5-fold increments for a total of eleven data points and were added to the ELISA wells and incubated at room temperature for 1 hour. The plate was washed with PBS for three times, and then incubated with HRP conjugated goat anti-human IgG antibody for 1 hour. The plate was washed three times with PBS. TMB, the HRP substrate, was added to each well for color development for 5 minutes at room temperature. Equal amount of 0.1N HCl stop solution was added to each well to terminate the reaction. Raw OD₄₅₀ data was collected by POLARstar Omega (BMG Labtech). Besides, hFc isotope was regarded as control. It can be seen that the antibodies (i.e. PP10759-PP10768) bind to human IL-17A with high affinity.

Assay [9] addresses T1, human IL-17A. Briefly: blocking ELISA, IL-17RC coated; antibody 1 ug/ml pre-mixed with human IL-17A 0.1 ug/ml; bound IL-17A detected. The method, then: as §1, §2

Take Normal human IgG (antibody): the Blocking % in [1] and in [2] was 0% throughout. Further, the OD450 was determined as 0.487 OD450 in assay [3] and 1.39 OD450 in [4].

B1: PP10767 (antibody, human IgG4 S228P, kappa, V domains shown)
VH: EVQLVESGGGVVQPGRSLRLSCAASGFTFSTYGMSWVRQAPGKGLELVAIINHNGGSTFYPDSVKGRFTISRDNSKNTLYLQMNSLRAEDTAVYYCARDPRHDGYFFDYWGQGTLVTVSS
VL: DIQMTQSPSSLSASVGDRVTITCQASEDIYDRLAWYQQKPGKAPKLLISGATSLETGVPSRFSGSGSGKDYTFTISSLQPEDIATYYCQQYWSVPWTFGGGTKVEIKR
notes: Humanized, human IgG4/kappa; also called VH6667/VL6666
The Kd is the constant that tells how readily two partners part at equilibrium. The term koff denotes a measure of how fast the partners let go of each other. Read a low koff as slow dissociation. In general, kon refers to a measure of how fast the partners come together. Usually EC50 stands for the concentration needed to bring the measured effect to its halfway point. Read a low EC50 as higher potency in that assay. With B1, the binding result in assay [5] is “no binding”. In assay [6], this molecule displayed a Blocking % of 98.1% and an OD450 of 0.105 OD450. In assay [7], this molecule displayed a Kd of less than 1 pM, a koff of less than 1e-07 s⁻¹ and a kon of 360000 M⁻¹ s⁻¹. This molecule also yielded an EC50 in assay [8] of 7.71 ng/mL. In [9], this molecule displayed a Blocking % of 99.9% and an OD450 of 0.0684 OD450.

B2: PP10768 (antibody, human IgG4 S228P, kappa, V domains shown)
VH: B1 VH
VL: B1 VL with Q24R, K45N, I48V, T56S, F73L, I83F
notes: Humanized, human IgG4/kappa; also called VH6667/VL6667
Consider B2, for which the binding result in assay [5] was “no binding”. In assay [6], the Blocking % worked out at 99.5% and the OD450 stood at 0.0869 OD450. For the same molecule, in assay [7], the Kd was less than 1 pM, the koff is less than 1e-07 s⁻¹ and the kon came to 370000 M⁻¹ s⁻¹. The EC50 in assay [8] was 7.67 ng/mL. In [9], this molecule displayed a Blocking % of 99.9% and an OD450 of 0.0685 OD450.
